Tests used:
[1] = including hypothalamic-pituitary suppression; cited from earlier work
patients [2] = assay: Adverse events in patients treated with MDX-010 in clinical protocols; format: in vivo
From the text: As noted above, these adverse events are an expected consequence of inhibiting CTLA-4 function. Immune-mediated events are adverse events associated with drug exposure and consistent with an immune-based mechanism of action. In terms of organ system involvement, these events have primarily involved the GI tract (diarrhea and colitis) or the skin (rash and pruritis). Diarrhea due to treatment with MDX-010 ranges from mild to very severe and may become life-threatening. Most cases of diarrhea and colitis have resolved with symptomatic treatment or corticosteroid intervention without known sequelae. Upper GI tract involvement including ileitis, duodenitis, and esophagitis has been observed.
To date, 6 patients in total have experienced gastrointestinal perforation or bleeding requiring colectomy following treatment with MDX-010. Two of these patients had melanoma (representing 0.6% of all patients with melanoma enrolled in MDX-010 related protocols), while four patients had renal cell carcinoma (representing 7% of all patients with renal cell carcinoma enrolled in MDX-010 related protocols). One of the patients with melanoma also received concomitant dacarbazine. After developing diarrhea, they initially appeared to improve on intravenous steroids, but their symptoms worsened after they were tapered off the steroids, and stool cultures were positive for Clostridium difficile, requiring aggressive medical treatment. The patient also developed laboratory evidence of disseminated intravascular coagulopathy (DIC), and required plasma and platelet transfusions. […] The patient's post-operative course was complicated by depression and malnutrition without evidence of systemic vasculitis. The patient developed pneumonia and subsequently died.
In the renal study (MDX010-011), one patient had GI bleeding, which was treated with a colectomy. The bleeding developed after a single dose of MDX-010. The other 3 events in the MDX010-011 study occurred after the patients received 4 to 6 doses of MDX-010. One patient with a bowel perforation was successfully treated with a colectomy and an ostomy. Subsequently, the bowel was re-functionalized. The patient was taken off steroids and has maintained a partial response to their malignancy. […] The diagnosis of colitis was only made on autopsy. The third patient with a bowel perforation continued to have diarrhea and was intermittently treated with steroids. Upon the diagnosis of a non-catastrophic perforation, the patient declined surgical intervention based on the overall progression of disease. The patient opted for hospice care and ultimately died. The fourth patient developed symptoms of colitis after a single dose of MDX-010, had only intermittent steroid treatment, and ultimately underwent a colectomy for uncontrolled bleeding. Of the 3 patients who received steroid therapy, the initiation of steroid therapy was delayed due to poor patient reporting of symptoms to the investigator, and the therapy was compromised by patient non-compliance with the recommended treatment.
The overall incidence of gastrointestinal perforations and/or colectomies is less than 2% of patients.
Skin toxicity in patients receiving MDX-010 has manifested as rash and pruritis, and, when biopsied, pleomorphic infiltrates have been noted in the skin. Some patients have developed vitiligo associated with MDX-010 administration. In our studies, there have been 7 cases of hypopituitarism reported to date, presumably due to immune-mediated hypophysitis. […] The effect of high-dose corticosteroid therapy on reversing pituitary abnormalities is unknown. Ocular inflammation, specifically Grade 2 or Grade 3 episcleritis or uveitis, has been reported in 6 patients; it has occurred in conjunction with GI symptoms in 4 of these patients. In addition, primary adrenal insufficiency has been noted in 3 patients. […]

patients [3] = assay: Clinical (antitumor) response in patients treated with MDX-010; format: in vivo, human
From the text: These adverse events, likely reflect a loss of tolerance to some self antigens, or a hyper-response to bacterial antigens present in the gut or skin, and are therefore mechanism-related and may be directly linked to the clinical antitumor activity of MDX-010.
Of note, most responses observed to date have occurred by Week 12, even in patients with initial progression. As such, all patients who receive at least one dose of MDX-010 (BMS-734016) will, whenever possible, first return for the tumor re-staging assessment at Week 12 (and not before). After patients have been treated in the Induction Phase, they will either enter the Maintenance Phase or the Follow-up Phase, depending upon whether or not they meet eligibility criteria to enter the Maintenance Phase.

Row | Molecule | adverse effects versus systemically-acting corticosteroids [1] | overall incidence of gastrointestinal perforations and/or colectomies (patients [2]; all patients) | patients in total who experienced gastrointestinal perforation or bleeding requiring colectomy (patients [2]; following treatment with MDX-010, all protocols, to date) | ocular inflammation (Grade 2 or Grade 3 episcleritis or uveitis) reported (patients [2]; human, in vivo) | primary adrenal insufficiency noted (patients [2]; human, in vivo) | ocular inflammation occurring in conjunction with GI symptoms (patients [2]; of the 6 patients with ocular inflammation) | gastrointestinal perforations or colectomies in patients with breast or prostate cancer (patients [2]; patients with breast or prostate cancer) | gastrointestinal perforation or bleeding requiring colectomy, share of all patients with melanoma enrolled (patients [2]; patients with melanoma in MDX-010 related protocols) | gastrointestinal perforation or bleeding requiring colectomy, share of all patients with renal cell carcinoma enrolled (patients [2]; patients with renal cell carcinoma in MDX-010 related protocols) | cases of hypopituitarism reported (patients [2]; presumably due to immune-mediated hypophysitis, to date) | time by which most responses observed to date have occurred (patients [3]; even in patients with initial progression) | patients developing an autoimmune-like adverse event who also experienced a clinical response (patients [3]; in one of the studies)
1 | CCCC1O[C@@H]2C[C@H]3[C@@H]4CCC5=CC(=O)C=C[C@]5(C)[C@H]4[C@@H](O)C[C@]3(C)[C@]2(C(=O)CO)O1 (stereo partly drawn) [Budesonide, budesonide] | fewer adverse effects |  |  |  |  |  |  |  |  |  |  | 
2 | MDX-010: human monoclonal anti-CTLA-4 antibody (Medarex, Inc.), corresponds to monoclonal antibody 10D1; also referred to as ipilimumab |  | less than 2 % of patients | 6 patients | 6 patients | 3 patients | 4 patients | no reported gastrointestinal perforations or colectomies | 0.6% | 7% | 7 cases | ≤ 12 Week | ~45%

Reference: patent US20070243184A1, “PROPHYLAXIS AND TREATMENT OF ENTEROCOLITIS ASSOCIATED WITH ANTI-CTLA-4 ANTIBODY THERAPY” (priority 2005, published 2007)
